Assay results from patent US20250144141A1.

Experiments:
[1] = target: HLA-A*02:01/MAGE-A4 complex (human) (UniProt P04439); test: SPR (Biacore T200), pMHC on streptavidin chip, 1:1 Langmuir fit
[2] = target: HLA-A*02:01/MAGE-A4 complex (human) (UniProt P04439); test: SPR

Kd [1] [nM]	Kd [2] [nM]	Binder
0.6	0.6	M1302 (bispecific antibody, from a related filing, V domains shown) VH: EVQLLESGGGSVQPGGSLRLSCTVSGFSLSNYAMSWVRQAPGKGLEWIGIVSSGGTTYYASWAKGRFTISKDTSKNTVYLQMNSLRAEDTASYYCAKDLYYGPNTDYSAANLWGQGTSVTVSS VL: SYELTQPPSVSVSPGQTASITCTADTLSRSYASWYQQKPGQSPVLVIYRDTSRPSGIPERFSGSNSGNTATLTISGTQAMDEADYYCATRPSSGSNFQLFGGGTKLTVL
0.24	0.25	M1041 (bispecific antibody, from a related filing, V domains shown) VH: ESQVLESGGGSVQPGGSLRLSCTVSGFSLSNYAMSWVRQAPGKGLEYIGIVSSGGTTYYASWAKGRFTISKDTSKNTVYLQMNSLRAEDTASYYCAKDLYYGPTTYSAFNLWGQGTSVTVSS VL: SYELTQPPSVSVSPGQTASITCTADTLSRSYASWYQQKPGQSPVLVIYRDTSRPSGIPERFSGSNSGNTATLTISGTQAMDEADYYCATRPSSGSNFQLFGGGTKLTVL
